{"source": "paper PMC4611711", "target": "truncated Bid (tBid) of cleaved Bid (cBid) 190C labeled with Alexa Fluor 488 (murine) (UniProt P70444)", "data": [{"substance": "p7 fragment of Bid (from cleaved Bid 190C) (domain or fragment)", "values": [{"measurement": "Kd", "value": 40, "unit": "nM"}]}]}
